The values that follow are results of earlier work, collected in PMC10866363.

Broadly, the Kd is the constant that tells how readily two partners part at equilibrium.

The series has as its target Trigger factor (Escherichia coli) (UniProt P0A850).

Trigger factor, sequence (P0A850 whole entry): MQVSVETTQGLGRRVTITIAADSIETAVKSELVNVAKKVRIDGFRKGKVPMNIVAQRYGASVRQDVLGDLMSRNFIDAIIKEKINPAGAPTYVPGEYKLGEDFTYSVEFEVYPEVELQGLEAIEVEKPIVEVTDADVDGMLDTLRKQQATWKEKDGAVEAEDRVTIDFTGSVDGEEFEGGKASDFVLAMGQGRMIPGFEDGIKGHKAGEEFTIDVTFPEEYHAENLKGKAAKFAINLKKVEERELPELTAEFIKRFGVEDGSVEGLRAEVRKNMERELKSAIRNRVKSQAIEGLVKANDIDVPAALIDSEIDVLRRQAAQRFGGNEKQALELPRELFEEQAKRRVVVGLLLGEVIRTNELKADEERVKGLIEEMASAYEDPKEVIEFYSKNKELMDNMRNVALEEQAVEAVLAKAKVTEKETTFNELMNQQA

As for Trigger factor (from UniProt P0A850), the Kd was 2 µM.
